Measured values: US20060233708A1
“And” between values parts separate entries of the source, which are not always exact repeats. Equal values may be shown once. Ends that are not written are not given here.

Columns and labels:
[1] = target: TGF-β receptors in mink lung epithelial cells; experiment: specific binding of 0.1 nM 125I-TGF-β1 to mink lung epithelial cells
[2] = target: TGF-β receptors in mink lung epithelial cells; experiment: specific binding of 125I-TGF-β1 to mink lung epithelial cells without peptide
[3] = target: TGF-β receptors in mink lung epithelial cells; experiment: competition with 125I-TGF-β1 for binding to mink lung epithelial cells
[4] = target: TGF-β receptors in mink lung epithelial cells
[5] = target: TGF-β receptors in mink lung epithelial cells; experiment: competition with 125I-TGF-β3 for binding to mink lung epithelial cells
[6] = target: TGF-β receptors in mink lung epithelial cells; experiment: competition with 125I-TGF-β1 for binding to mink lung epithelial cells; remark: listed apart in the source
[7] = target: type III TGF-β receptor (mink); experiment: inhibition of 125I-TGF-β1 affinity labeling of receptors on mink lung epithelial cells
[8] = target: type II TGF-β receptor (mink); experiment: as above
[9] = target: type V TGF-β receptor (mink); experiment: as above
[10] = target: type I TGF-β receptor (mink); experiment: as above
[11] = target: TGF-β receptors in mink lung epithelial cells; experiment: competition with 125I-TGF-β2 for binding to mink lung epithelial cells
[12] = target: TGF-β receptors in mink lung epithelial cells; experiment: specific binding of 125I-TGF-β2 to mink lung epithelial cells without peptide
[13] = target: TGF-β receptors in mink lung epithelial cells; experiment: specific binding of 125I-TGF-β3 to mink lung epithelial cells without peptide

TGF-β1 (ligand)
specific binding without peptides [1]: 3670 cpm/well | specific binding (0% inhibition) [2]: 3930 cpm/well

peptide β1^25 (41-65)-carbonic anhydrase (CA) conjugate (from UniProt P00915)
IC50 [3]: 50 nM | fold lower IC50 than peptide β1^25 (41-65) prior to conjugation [3]: 20 fold | ED50 of growth inhibition as measured by DNA synthesis in mink lung epithelial cells [4]: 100 nM

peptide β1^25 (41-65)-bovine serum albumin (BSA) conjugate (from UniProt P02769)
IC50 [3]: 60 nM | fold lower IC50 than peptide β1^25 (41-65) prior to conjugation [3]: 20 fold | ED50 of growth inhibition as measured by DNA synthesis in mink lung epithelial cells [4]: 100 nM

ANFCLGPCPYIWSLDTQYSKVLALY (not fully specified; cysteine pairing not given here) [peptide β1^25 (41-65)]
IC50 [5]: 60 to 80 nM | IC50 [6]: 1000 nM and 2000 nM | concentration of complete inhibition of ^125I-TGF-β1 binding [6]: 34 µM | percent inhibition of ^125I-TGF-β1-affinity labeling at 2.3 µM [7]: 30 to 40% | percent inhibition of ^125I-TGF-β1-affinity labeling at 2.3 µM [8]: 30 to 40% | concentration at which ^125I-TGF-β1-affinity labeling was almost completely abolished [9]: 2.3 µM | percent inhibition of ^125I-TGF-β1-affinity labeling at 2.3 µM [10]: 30 to 40% | IC50 [11]: 1000 nM and 2000 nM

ANFCAGACPYLWSSDTQHSRVLSLY (not fully specified; cysteine pairing not given here) [peptide β2^25 (41-65)]
IC50 [5]: 80 nM | IC50 [6]: 1000 nM and 2000 nM | IC50 [11]: 1000 nM and 2000 nM

ANFCSGPCPYLRSADTTHSTVLGLY (not fully specified; cysteine pairing not given here) [peptide β3^25 (41-65)]
IC50 [5]: 60 to 80 nM | IC50 [6]: 20000 nM | IC50 [11]: 20000 nM

PYIWSLDTQY [peptide β1^10 (49-58)]
IC50 [6]: 40000 to 70000 nM

PYLWSSDTQH [peptide β2^10 (49-58)]
IC50 [6]: 40000 to 70000 nM

PYLWASDTQH [peptide β2^10 (49-58) S53A]
IC50 [6]: 40000 nM

B1: TGF-β2 (ligand)
chain: ALDAAYCFRNVQDNCCLRPLYIDFKRDLGWKWIHEPKGYNANFCAGACPYLWSSDTQHSRVLSLYNTINPEASASPCCVSQDLEPLTILYYIGKTPKIEQLSNMIVKSCKCS
modifications: ^125I-labelled (iodination with Na^125I)
specific binding (0% inhibition) [12]: 4510 cpm/well

B2: TGF-β3 (ligand)
chain: ALDTNYCFRNLEENCCVRPLYIDFRQDLGWKWVHEPKGYYANFCSGPCPYLRSADTTHSTVLGLYNTLNPEASASPCCVPQDLEPLTILYYVGRTPKVEQLSNMVVKSCKCS
modifications: ^125I-labelled (iodination with Na^125I)
specific binding (0% inhibition) [13]: 4220 cpm/well
